Results as given in PMC11871015, “Unraveling the molecular basis of substrate specificity and halogen activation in vanadium-dependent haloperoxidases” (Nature Communications, 2025).
Blank lines part the entries; values can stand above or below the compound they belong to.

Experiments:
[1] = molecular target: AmVHPO R425S mutant (vanadium-dependent haloperoxidase from Acaryochloris marina, R425S) (Acaryochloris marina MBIC 11017); assay: crystal structure; hanging drop vapor diffusion at 20 °C, protein 15 mg/mL, reservoir 0.1 M Tris pH 8.5, 2 M NH4H2PO4, 0.5 mM K3VO4; R425S solved without and with 1 mM 1,3,5-trimethoxybenzene (TMB)
[2] = molecular target: AmVHPO R425D mutant (vanadium-dependent haloperoxidase from Acaryochloris marina, R425D) (Acaryochloris marina MBIC 11017); assay: as above
[3] = molecular target: T1, AmVHPO (vanadium-dependent haloperoxidase from Acaryochloris marina) (Acaryochloris marina, UniProt B0C4R0, R425S); assay: X-ray co-crystal structure; format: binding; conditions: 1 mM TMB; phosphate in place of vanadate; site at interface of two adjacent subunits (Glu139, Gln399, Phe401); pH 8.5; 20 °C
T1 construct: gene AM1_4975; codon-optimized synthetic gene in pET28-based vector, His-tag, E. coli BL21 (DE3); dodecamer (hexamer of dimers); active site/substrate tunnel formed by two adjacent subunits
T1 sequence (B0C4R0 entry or part of it R425S): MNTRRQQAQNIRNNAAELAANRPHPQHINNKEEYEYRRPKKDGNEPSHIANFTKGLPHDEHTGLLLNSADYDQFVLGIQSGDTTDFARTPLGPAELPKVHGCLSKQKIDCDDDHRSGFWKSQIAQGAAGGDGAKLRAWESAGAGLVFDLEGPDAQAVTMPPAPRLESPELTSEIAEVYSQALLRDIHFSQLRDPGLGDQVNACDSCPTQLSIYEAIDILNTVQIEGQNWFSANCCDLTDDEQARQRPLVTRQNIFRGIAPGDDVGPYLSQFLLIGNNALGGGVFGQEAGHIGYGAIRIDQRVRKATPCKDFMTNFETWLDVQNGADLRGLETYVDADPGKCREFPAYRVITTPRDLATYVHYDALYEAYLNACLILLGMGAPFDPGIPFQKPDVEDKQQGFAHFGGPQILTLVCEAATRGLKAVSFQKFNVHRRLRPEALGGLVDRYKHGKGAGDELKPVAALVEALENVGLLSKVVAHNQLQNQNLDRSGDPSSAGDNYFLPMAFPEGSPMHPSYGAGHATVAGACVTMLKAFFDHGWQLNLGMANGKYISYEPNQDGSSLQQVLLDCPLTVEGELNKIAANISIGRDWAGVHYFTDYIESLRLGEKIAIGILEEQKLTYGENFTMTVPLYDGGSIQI

- stoichiometry N [1]: 12
Compound: AmVHPO R425S mutant (vanadium-dependent haloperoxidase from Acaryochloris marina, R425S) (enzyme)

- stoichiometry N [2]: 12
Compound: AmVHPO R425D mutant (vanadium-dependent haloperoxidase from Acaryochloris marina, R425D) (enzyme)

- X-ray co-crystal structure [3]: 8Q22 (AmVHPO R425S mutant with TMB)
Compound: COc1cc(OC)cc(OC)c1 [compound 7, 1,3,5-trimethoxybenzene]
